Experiments:
[1] = molecular target: VirC (Streptomyces virginiae); test: other fluorescence titration; tryptophan fluorescence quenching; VirC, VirD, VirD mutant or VirE at 5 μM in TE buffer (20 mM Tris-HCl pH 8.5, 2 mM EDTA), 25 °C, titrated with ACP ligand (0–150 μM); excitation 295 nm; one site-specific binding model; averaged data of two independent measurements
[2] = molecular target: VirD (Streptomyces virginiae); test: as above
[3] = molecular target: VirE (Streptomyces virginiae); test: as above
[4] = molecular target: VirD (Streptomyces virginiae); test: SAXS; SEC-coupled SAXS (SWING beamline, Bio-SEC 100 Å column), 15 °C, 20 mM Tris-HCl pH 8.5, 300 mM NaCl, 5% glycerol, 50 μL at 5 mg/mL; curves compared with crystal structures or models (CRYSOL, SASREF)
[5] = molecular target: VirE (Streptomyces virginiae); test: as above
[6] = molecular target: Se-VirD (Streptomyces virginiae); test: crystal structure; Se-VirD alone, 20% PEG 400, 20% PEG 800, 100 mM Tris-HCl pH 7.5; space group P4(1)2(1)2; Se-SAD, 1.7 Å
[7] = molecular target: Se-VirD (Streptomyces virginiae); test: crystal structure; holo-ACP5b–Se-VirD complex, hanging drop, ratio 1:4, 100 mM calcium chloride, 30% PEG 1500, 10% 2-propanol, 100 mM imidazole-HCl pH 6.5; space group H3; 2.1 Å
[8] = molecular target: VirD E128Q (Streptomyces virginiae); test: other fluorescence titration; tryptophan fluorescence quenching; VirC, VirD, VirD mutant or VirE at 5 μM in TE buffer (20 mM Tris-HCl pH 8.5, 2 mM EDTA), 25 °C, titrated with ACP ligand (0–150 μM); excitation 295 nm; one site-specific binding model; averaged data of two independent measurements

Row | Molecule | Kd [1] | Kd [2] | Kd [3] | other results
1 | VirD (enzyme) | – | – | – | stoichiometry N [4]: 3
2 | apo-Sna ACP7 (domain or fragment) | 78 µM | 166 µM | – | –
3 | apo-ACP7 (domain or fragment) | 75 µM | 75 µM | 301 µM | –
4 | VirE (enzyme) | – | – | – | stoichiometry N [5]: 3
5 | Se-VirD (enzyme) | – | – | – | stoichiometry N [6]: 3; stoichiometry N [7]: 3
6 | apo-ACP5a (domain or fragment) GPGSAGRQEEIAEEVARLLAGVLYLEPDRLDPEETFLTLGVDSILGVEFVAAVNAAYPVGVKATALYDHPTPAAFARHIAESLGA | 166 µM | 102 µM | 653 µM | –
7 | apo-ACP5a E6761A (domain or fragment) GPGSAGRQEEIAEEVARLLAGVLYLEPDRLDPEATFLTLGVDSILGVEFVAAVNAAYPVGVKATALYDHPTPAAFARHIAESLGA | 108 µM | 186 µM | – | –
8 | holo-ACP5a E6761A/L6764N (domain or fragment, phosphopantetheine (holo form)) GPGSAGRQEEIAEEVARLLAGVLYLEPDRLDPEATFNTLGVDSILGVEFVAAVNAAYPVGVKATALYDHPTPAAFARHIAESLGA | 10 µM | 7 µM | – | –
9 | apo-ACP5a L6764N (domain or fragment) GPGSAGRQEEIAEEVARLLAGVLYLEPDRLDPEETFNTLGVDSILGVEFVAAVNAAYPVGVKATALYDHPTPAAFARHIAESLGA | 89 µM | 83 µM | – | –
10 | holo-ACP5a E6761A (domain or fragment, phosphopantetheine (holo form)) GPGSAGRQEEIAEEVARLLAGVLYLEPDRLDPEATFLTLGVDSILGVEFVAAVNAAYPVGVKATALYDHPTPAAFARHIAESLGA | 4.7 µM | 6.1 µM | – | –
11 | acetoacetyl-ACP5a (domain or fragment, acetoacetyl form (acetoacetate as substrate mimic on the phosphopantetheine)) GPGSAGRQEEIAEEVARLLAGVLYLEPDRLDPEETFLTLGVDSILGVEFVAAVNAAYPVGVKATALYDHPTPAAFARHIAESLGA | 40 µM | – | – | –
12 | HMG-ACP5a (domain or fragment, HMG form ((RS)-3-hydroxy-3-methylglutarate as substrate mimic on the phosphopantetheine)) GPGSAGRQEEIAEEVARLLAGVLYLEPDRLDPEETFLTLGVDSILGVEFVAAVNAAYPVGVKATALYDHPTPAAFARHIAESLGA | – | 51 µM | – | –
13 | apo-ACP5a E6761A/L6764N (domain or fragment) GPGSAGRQEEIAEEVARLLAGVLYLEPDRLDPEATFNTLGVDSILGVEFVAAVNAAYPVGVKATALYDHPTPAAFARHIAESLGA | 61 µM | 117 µM | – | –
14 | acetoacetyl-ACP5b (domain or fragment, acetoacetyl form (acetoacetate as substrate mimic on the phosphopantetheine)) GPGSAVAVDPAPVARALREELARTLYCEPGDIDDEASFNTLGLDSILGVEFVAFVNQTYGLDEKAGILYDHPSLAALSRHVAGRAAPV | 4.3 µM | – | – | –
15 | HMG-ACP5b (domain or fragment, HMG form ((RS)-3-hydroxy-3-methylglutarate as substrate mimic on the phosphopantetheine)) GPGSAVAVDPAPVARALREELARTLYCEPGDIDDEASFNTLGLDSILGVEFVAFVNQTYGLDEKAGILYDHPSLAALSRHVAGRAAPV | – | 39 µM | – | Kd [8]: 33 µM
16 | apo-ACP5b (domain or fragment) GPGSAVAVDPAPVARALREELARTLYCEPGDIDDEASFNTLGLDSILGVEFVAFVNQTYGLDEKAGILYDHPSLAALSRHVAGRAAPV | 77 µM | 178 µM | 171 µM | –

Further lines, with some results ahead:

Row | Kd [1] | Kd [2] | Kd [3] | Molecule | other results
17 | 18 µM | 4.3 µM | 22 µM | holo-ACP7 (domain or fragment) | –
18 | 17 µM | 19 µM | 42 µM | holo-ACP5a-ACP5b didomain (domain or fragment) | –
19 | 13 µM | 13 µM | – | holo-Sna ACP7 (domain or fragment) | –
20 | – | – | 287 µM | methylcrotonyl-ACP5a (domain or fragment, methylcrotonyl form (3-methylcrotonate as substrate mimic on the phosphopantetheine)) GPGSAGRQEEIAEEVARLLAGVLYLEPDRLDPEETFLTLGVDSILGVEFVAAVNAAYPVGVKATALYDHPTPAAFARHIAESLGA | –
21 | 11 µM | 4.1 µM | – | holo-ACP5a L6764N (domain or fragment, phosphopantetheine (holo form)) GPGSAGRQEEIAEEVARLLAGVLYLEPDRLDPEETFNTLGVDSILGVEFVAAVNAAYPVGVKATALYDHPTPAAFARHIAESLGA | –
22 | 3.8 µM | 2.9 µM | 6.8 µM | holo-ACP5b (domain or fragment, phosphopantetheine (Ppant) on S6871) GPGSAVAVDPAPVARALREELARTLYCEPGDIDDEASFNTLGLDSILGVEFVAFVNQTYGLDEKAGILYDHPSLAALSRHVAGRAAPV | –
23 | – | – | 30 µM | methylcrotonyl-ACP5b (domain or fragment, methylcrotonyl form (3-methylcrotonate as substrate mimic on the phosphopantetheine)) GPGSAVAVDPAPVARALREELARTLYCEPGDIDDEASFNTLGLDSILGVEFVAFVNQTYGLDEKAGILYDHPSLAALSRHVAGRAAPV | –

Reference: publication PMC10006238
